Values quoted from earlier work as cited in publication PMC3074115.

What was measured:
[1] = biological target: Ferrochelatase (Homo sapiens) (UniProt P22830); assay: ITC
IscU (Escherichia coli) = IscU (Escherichia coli) (UniProt P0ACD4); assay: ITC and SPR
IscU (Escherichia coli), sequence (P0ACD4 whole entry): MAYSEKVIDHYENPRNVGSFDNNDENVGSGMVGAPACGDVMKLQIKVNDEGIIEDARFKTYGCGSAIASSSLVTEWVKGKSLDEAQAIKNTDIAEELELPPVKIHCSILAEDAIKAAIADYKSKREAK

Ferrochelatase (Homo sapiens), sequence (P22830 55-423): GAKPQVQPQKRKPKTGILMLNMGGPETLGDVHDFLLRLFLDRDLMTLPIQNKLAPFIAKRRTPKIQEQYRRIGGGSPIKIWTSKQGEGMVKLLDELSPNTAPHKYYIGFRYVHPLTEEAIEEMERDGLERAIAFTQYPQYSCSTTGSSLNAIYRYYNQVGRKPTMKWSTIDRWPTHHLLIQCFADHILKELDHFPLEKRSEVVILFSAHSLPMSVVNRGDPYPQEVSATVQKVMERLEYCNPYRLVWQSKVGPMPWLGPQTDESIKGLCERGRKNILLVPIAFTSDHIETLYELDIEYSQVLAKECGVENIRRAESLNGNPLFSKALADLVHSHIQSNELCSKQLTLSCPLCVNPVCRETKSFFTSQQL
IscS, sequence (P0A6B7 whole entry): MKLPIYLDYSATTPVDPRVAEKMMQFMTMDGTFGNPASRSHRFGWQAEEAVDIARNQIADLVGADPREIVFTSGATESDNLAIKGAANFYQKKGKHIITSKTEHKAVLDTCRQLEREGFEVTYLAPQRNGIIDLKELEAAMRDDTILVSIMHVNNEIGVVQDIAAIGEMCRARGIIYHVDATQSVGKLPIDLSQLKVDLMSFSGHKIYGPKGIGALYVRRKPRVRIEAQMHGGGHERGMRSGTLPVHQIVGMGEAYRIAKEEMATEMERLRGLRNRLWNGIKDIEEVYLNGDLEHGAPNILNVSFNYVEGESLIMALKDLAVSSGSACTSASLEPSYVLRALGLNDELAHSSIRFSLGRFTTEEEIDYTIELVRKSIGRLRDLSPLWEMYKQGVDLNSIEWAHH

For Frataxin (from UniProt Q16595), the Kd [1] is listed as 0.017 µM.

For IscS (from UniProt P0A6B7), the Kd (IscU (Escherichia coli)) is listed as 2 µM.
